Assay: Hydrophobicity by hydrophobic interaction chromatography (HIC), phenyl Superose column (retention time, ta/tm)
Assay type: physicochemical
Conditions: for HIC Column Retention Time: pH 5.0, 4 mM piperazine-HCl; for HIC Column Retention Time / HIC Retention Time: 32° C.
Method: The hydrophobicity of an agent (eg, an agent such as a polypeptide or protein in solution, as well as the relative increase or decrease thereof) is determined by passing the agent-containing solution through a chromatography column filled with a particular "hydrophobic interaction" bead material and measuring either (1) the time required for the agent to elute (ie, pass through) the column or (2) the volume of liquid (ie, the same liquid used in the agent-containing sample, but with the agent removed) required to be pumped through the column in order to elute the agent. For the purposes of the present invention, the hydrophobicity of an agent is defined in terms relative to the marker compound, N-acetyl tryptophanamide (sold by Sigma Chemical, St. Louis, Mo.), which has a somewhat moderate hydrophobicity. Hydrophobicity, as that term is used herein, is measured using a 5 mm diameter glass column having a length of 5 cm (ie, column volume of 1.0 mL) and packed with cross-linked agar beads having an average particle size of 13.5 μm. Examples of suitable hydrophobic bead materials include cross-linked agar gel beads (Superose 12) having hydrophobic ligands attached to the agar via chemically stable ether linkages ((Superose 12)--O--CH2 --CHOH--CH2 --O--R) such as alkyl-Superose wherein R is --CH2 --C(CH3)3 and phenyl-Superose wherein R is phenyl, both of which are sold in pre-packaged column form by Pharmacia Biotech, Inc. of Piscataway, N.J. Immediately downstream from the column is placed a flow cell which permits continuous UV absorbance measurements of the solution flowing out of the column. Suitable flow cells and UV absorbance detectors are sold by Perkin-Elmer Corp., Applied Biosystems, Foster City, Calif. Hydrophobicity measurements are conducted at 32° C. with the same buffer that is used in the electrotransport system which is used to deliver the agent (eg, transdermally) to the patient. The buffer strength used in the hydrophobicity measurements is 10 mM ionic strength. The term "certain hydrophobicity" as used herein, means that the time required for the agent to elute from the column, relative to the time required for N-acetyl tryptophanamide to elute, is as follows:
ta /tm >0.7, and preferably ta /tm >3
ta is the time at which the peak UV absorbance value is recorded for the beneficial agent in the flow cell, less the time required to initially fill the column with the agent-containing solution (ie, dead volume retention time); and
tm is the time at which the peak UV absorbance value is recorded for the N-acetyl tryptophanamide marker in the flow cell, less the time required to initially fill the column with the marker-containing solution (ie, dead volume retention time).
The above described measurement of agent hydrophobicity is substantially independent of column size and flow rate through the column.
One method of measuring the hydrophobicity of an agent such as a polypeptide or protein is by hydrophobic interaction chromatography (HIC). The principles and conditions associated with HIC are fully described in Protein Purification: Principles, High Resolution Methods, and Applications, Janson and Ryden, Eds., pp. 207-226 (1989), the pertinent portions of which are incorporated herein by reference. This method requires passing a composition through a hydrophobic interaction column and measuring the volume of solvent required for its complete elution. The hydrophobic sites on the agent are generally attracted to hydrophobic groups, such as aryl groups, affixed to beads placed within the column. A preferred HIC column material is phenyl-superose (Pharmacia, Sweden), a cross-linked polysaccharide which has been covalently modified to have pendant hydrophobic aryl groups. These pendant groups are similar to the hydrophobic or lipophilic species in the skin layers. Thus, this hydrophobic interaction column approximates, and is a good in vitro model for, an animal's skin layer as a barrier to transport of a polypeptide or protein. […]

[1] = pH 3.5, 10 mM sodium chloroacetate, TWEEN 20 0
[2] = pH 3.5, 10 mM sodium chloroacetate, TWEEN 20 1.5 mg/mL
[3] = pH 3.5, 10 mM sodium chloroacetate, TWEEN 20 2.66 mM
[4] = pH 3.5, 10 mM sodium chloroacetate, TWEEN 20 5.33 mM
[5] = pH 3.5, 10 mM sodium chloroacetate, TWEEN 20 6.66 mM
[6] = pH 3.5, 10 mM sodium chloroacetate, TWEEN 20 8.88 mM
[7] = pH 9.0, 10 mM sodium borate, TWEEN 20 0
[8] = pH 9.0, 10 mM sodium borate, TWEEN 20 1.5 mg/mL
[9] = pH 9.0, 10 mM sodium borate, TWEEN 20 2.66 mM
[10] = pH 9.0, 10 mM sodium borate, TWEEN 20 6.0 mg/mL
[11] = pH 9.0, 10 mM sodium borate, TWEEN 20 8.88 mM

## Salmon Calcitonin [reference compound]
Dodecyl sulfobetaine 0, calcitonin 0.076 mM
  HIC Column Retention Time: 9.4 min
Dodecyl sulfobetaine 0.83 mM, calcitonin 0.076 mM
  HIC Column Retention Time: 12.4 min
Dodecyl sulfobetaine 3.23 mM, calcitonin 0.074 mM
  HIC Column Retention Time: 87.1 min
Dodecyl sulfobetaine 6.25 mM, calcitonin 0.072 mM
  HIC Column Retention Time: 64.1 min
Dodecyl sulfobetaine 9.77 mM, calcitonin 0.069 mM
  HIC Column Retention Time: 45.1 min
Dodecyl sulfobetaine 18.4 mM, calcitonin 0.062 mM
  HIC Column Retention Time: 28.8 min
Dodecyl sulfobetaine 26.4 mM, calcitonin 0.056 mM
  HIC Column Retention Time: 24.4 min

## Insulinotropin: the protein insulinotropin
[1]
  HIC Retention Time: 57.6 min
  HIC Retention Time, fractional change (% δ): 0
[2]
  HIC Retention Time: 25.6 min
  HIC Retention Time, fractional change (% δ): 0.60
[3]
  HIC Retention Time: 11.5 min
  HIC Retention Time, fractional change (% δ): 0.87
[4]
  HIC Retention Time: 6.1 min
  HIC Retention Time, fractional change (% δ): 0.97
[5]
  HIC Retention Time: 6.0 min
  HIC Retention Time, fractional change (% δ): 0.97
[6]
  HIC Retention Time: 4.4 min
  HIC Retention Time, fractional change (% δ): 1.00
[7]
  HIC Retention Time: 10.1 min
  HIC Retention Time, fractional change (% δ): 0
[8]
  HIC Retention Time: 9.4 min
  HIC Retention Time, fractional change (% δ): 0.11
[9]
  HIC Retention Time: 6.4 min
  HIC Retention Time, fractional change (% δ): 0.59
[10]
  HIC Retention Time: 4.8 min
  HIC Retention Time, fractional change (% δ): 0.84
[11]
  HIC Retention Time: 3.8 min
  HIC Retention Time, fractional change (% δ): 1.00
